Source: PMC5844954

Assays:
[1] = target: human LGN TPR domain, residues 1-350, FLAG-tagged (and a GFP-tagged copy) (human); experiment: co-IP; HEK293T co-transfected with FLAG-LGN^TPR, GFP-LGN^TPR and GFP-Insc^ASYM-ΔαB; anti-FLAG M2 sepharose beads, modified JS buffer, 1 h at 4 °C
[2] = target: human LGN TPR domain, fragment 15-350 (human); experiment: SEC; purified co-expressed complexes on a size-exclusion column with globular markers, Coomassie SDS-PAGE of peak fractions

Sequence of human LGN TPR domain, residues 1-350, FLAG-tagged (and a GFP-tagged copy) (human) (P81274 1-350): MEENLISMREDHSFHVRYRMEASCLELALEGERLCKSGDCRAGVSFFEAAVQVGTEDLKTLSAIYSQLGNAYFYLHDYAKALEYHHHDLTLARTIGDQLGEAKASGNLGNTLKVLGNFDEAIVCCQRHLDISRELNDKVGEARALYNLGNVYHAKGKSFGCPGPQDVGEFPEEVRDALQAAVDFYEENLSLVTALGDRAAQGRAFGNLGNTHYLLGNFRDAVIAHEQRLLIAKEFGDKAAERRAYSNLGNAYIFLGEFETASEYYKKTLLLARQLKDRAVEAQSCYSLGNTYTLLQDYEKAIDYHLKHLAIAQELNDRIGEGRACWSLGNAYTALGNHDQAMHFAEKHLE

Row | stoichiometry N (Insc per LGN (1:1)) [1] | stoichiometry N (Insc per LGN (2:2)) [2] | Binder
1 | 1 | – | human GFP-Insc^ASYM-ΔαB (Insc^ASYM lacking residues 62-191) (domain or fragment) MMALPGGRHLDSVTLPGQRLHLMQVDSVQRWMEDLKLMTECECMCVLQAKPISLEEDAQGDVQALVRKIDASDNIYTTESTTGNLFSLTQEGAPLCRIIAKEGGVVALFKVCRQDSFRCLYPQALRTLASICCVEEGVHQLEKVDGVLCLADILTDNSHSEATRAEAAAVVAQVTSPHLPVTQHLSS
2 | – | 1 | human 6His-tagged full-length Insc (residues 1-532) (natural protein) MMALPGGRHLDSVTLPGQRLHLMQVDSVQRWMEDLKLMTECECMCVLQAKPISLEEDAQGDLILAGGPGPGDPLQLLLKRGWVISTELRRIGQKLAQDRWARVHSMSVRLTCHARSMVSEYSAVSRNSLKEMGEIEKLLMEKCSELSAVTERCLQVENEHVLKSMKACVSETLSMLGQHFGQLLELALTREVQALVRKIDASDNIYTTESTTGNLFSLTQEGAPLCRIIAKEGGVVALFKVCRQDSFRCLYPQALRTLASICCVEEGVHQLEKVDGVLCLADILTDNSHSEATRAEAAAVVAQVTSPHLPVTQHLSSFLESMEEIVTALVKLCQEASSGEVFLLASAALANITFFDTMACEMLLQLNAIRVLLEACSDKQRVDTPYTRDQIVTILANMSVLEQCASDIIQENGVQLIMGMLSEKPRSGTPAEVAACERVQQKAAVTLARLSRDPDVAREAVRLSCMSRLIELCRSPSERNSSDAVLVACLAALRRLAGVCPEGLQDSDFQQLVQPRLVDSFLLCSNMEESFV
